Source: patent US8147817B2, “IL-33 in the treatment and diagnosis of diseases and disorders” (The Brigham and Women's Hospital, Inc., priority 2006, dated 2012)
“Also recorded” adds a separate entry of the source. Where two headings read alike, the source gives them in different places.

Experiments:
[1] = molecular target: T1, mouse ST2 (Mus musculus, UniProt P14719); assay: Pull-down assay of recombinant IL-33 with mouse ST2-Fc protein; type: binding
T1 construct: purchased R&D
T1 sequence (P14719 27-337 isoform P14719-2 limits assumed): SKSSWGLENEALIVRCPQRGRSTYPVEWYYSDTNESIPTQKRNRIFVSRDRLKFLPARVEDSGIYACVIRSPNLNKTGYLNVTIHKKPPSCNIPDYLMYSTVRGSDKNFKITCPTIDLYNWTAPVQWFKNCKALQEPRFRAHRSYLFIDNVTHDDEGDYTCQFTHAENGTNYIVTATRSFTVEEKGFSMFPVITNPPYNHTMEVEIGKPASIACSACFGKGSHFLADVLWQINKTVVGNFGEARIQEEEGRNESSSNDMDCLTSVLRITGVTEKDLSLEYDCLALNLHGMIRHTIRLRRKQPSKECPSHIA
Source text: The GenBank™ accession number for rat IL-33 is BC081993. The rat IL-33 cDNA was subcloned into the expression vector pTrcHis-TOPO (Invitrogen), starting with amino acid 109 of the full-length protein with an N-terminal His tag. After sequencing, One-shot TOP10 bacteria (Invitrogen) were transformed and expression was induced with Isopropyl β-D-1-thiogalactopyranoside (Sigma). Four hours after induction, bacteria were harvested, and the pellet was resuspended in B-PER Bacterial Protein Extraction Reagent (Pierce) with EDTA-free protease inhibitor cocktail (Sigma). The lysate was purified with Ni-chelating affinity chromatography using a Ni-NTA Purification system (Invitrogen). Briefly, Ni NTA beads were washed twice after batch binding with 40 ml of 20 mM Imidazole, 300 mM NaCl, 50 mM potassium phosphate, pH 8.0. IL-33 was eluted with 10 ml of 250 mM Imidazole, 300 mM NaCl, 50 mM potassium phosphate, pH 8.0. IL-33 protein was further concentrated, dialyzed and purified by high-performance liquid chromatography (BioLogic DuoFlow System, Bio-Rad, Hercules, Calif.) using HiPrep sephacryl size exclusion column (GE Healthcare Bioscience, Piscataway, N.J.) with buffer containing 150 mM NaCl, 50 mM potassium phosphate, pH 7.2. Endotoxin level (<0.03 EU/μg protein) was determined by Limulus Amebocyte Lysate PYROGENT Ultra (Cambrex) as previously described (12). […]

[2] = tested on: rat neonatal cardiomyocytes; assay: In vitro cell size measurement of cardiomyocytes; type: cell-based; settings: with or without angiotensin-II (0.1 μM), IL-33 (10 ng/ml), anti-ST2 antibody (100 μg/ml)
Protocol: Sarcomeric α-actinin staining for cardiomyocytes and BrdUrd labeling for cardiac fibroblasts were performed as described previously (5). Mouse monoclonal antibody to sarcomeric α-actinin (EA-53, Sigma) was diluted 1:100 and used. For cardiomyocyte size, cells were visualized using an inverted fluorescent microscope (IX-70; Olympus), and the surface area of the cardiomyocytes was calculated with ImagePro Express software. Cells from randomly selected fields were analyzed.
Cell culture of rat neonatal cardiomyocytes and cardiac fibroblasts was performed as previously described (42, 43). Briefly, hearts from 1-3 day-old Sprague-Dawley rat neonates (Charles River) were digested with trypsin (1 mg/ml, GIBCO) and collagenase-II (0.8 mg/ml, Worthington), and plated on non-coated culture dishes for 1.5 hrs. Attached cells were further cultured with Dulbecco's Modified Essential Medium (GIBCO) containing 10% fetal bovine serum and used as cardiac fibroblasts after 2 passages. […]
Immunofluorescence staining on paraffin-embedded mice hearts or rat neonatal cardiomyocyte cell culture was performed as described previously (42, 45). […] For measuring cardiomyocyte size, the surface area of the cells was calculated with ImagePro Express software. Cells from randomly selected fields were analyzed.

[3] = tested on: IκBα; assay: IκBα phosphorylation by Western analysis in cardiomyocytes; type: cell-based, rat
Protocol: Western analyses were performed as described previously (45). Membranes were incubated with primary antibodies overnight (anti-p44/42MAPK diluted 1:500; phospho-p44/42MAPK (Thr202/Tyr204) 1:1000; phospho-JNK (Thr183/Tyr185) 1:500; p38MAPK 1:500; phospho-p38MAPK (Thr180/Tyr182) 1:500; phospho-Akt (Ser473) 1:1000 and phospho-IκBα 1:1000, all from Cell Signaling, anti-mouse ST2L, from R&D 1:1000 and anti-IL-33 as described above, 1:500) at 4° C., detected with horseradish peroxidase-conjugated antibodies and enhanced chemiluminescence.

[4] = tested on: NF-κB; assay: NF-κB luciferase reporter assay in neonatal rat cardiomyocytes; type: cell-based; settings: angiotensin-II with IL-33 co-treatment, n=3
Protocol: Neonatal rat cardiomyocytes were transfected using Lipofectamine Plus (Invitrogen) with a luciferase reporter plasmid for NF-κB and with β-galactosidase, as described previously (47). After 48 hours of transfection, cells were then stimulated for an additional 24 hours, lysed and treated with Dual-Light assay system (Applied Biosystems, Foster City, Calif.), and analyzed using a luminometer (PerkinElmer Waltham, Calif.).

[5] = tested on: lungs of Sham-operated mice; assay: Lung histology of Sham-operated mice after IL-33 treatment; type: in vivo, mouse; settings: 2 μg/day rat IL-33 for 7 days
Protocol: Targeted ST2−/− mice and their WT littermates were employed for the experiments. […] All operative procedures were performed by a single operator with over 20 years rodent cardiac surgery experience who was blinded to genotype and the randomized treatment assignment. Following the procedure, each mouse received daily i.p. injection of recombinant rat IL-33 (2 μg) or vehicle from the day after TAC operation until the day of harvest.

B1: IL-33: recombinant mature rat IL-33, starting with amino acid 109 of the full-length protein, N-terminal His tag (GenBank BC081993) (protein)
chain: SIQGTSLLTESCALSTYNDQSVSFVLENGCYVINVEDCGKNQEKDKVLLRYYESSFPAQSGDGVDGKKLMVNMSPIKDTDIWLNANDKDYSVELQKGDVSPPDQAFFVLHKKSSDFVSFECKNLPGTYIGVKDNQLALVEENDESCNNIMFKLSKM
modifications: left off: small tags and cut ends
[1]
  binding to mouse ST2 (pulldown with ST2-Fc chimera protein): bound to the mouse ST2 protein
[1]; listed as recombinant IL-33
  binding to mouse ST2 (pulldown with ST2-Fc chimera protein): exhibits specific binding to mouse ST2
[2]
  cardiomyocyte cell size: antihypertrophic effect of IL-33 was further confirmed
[3]; PDGF-BB (10 ng/ml) or TNF-α (10 ng/ml), IL-33 10 ng/ml
  reduction of IκBα phosphorylation induced by PDGF-BB or TNF-α: not observed; also recorded: did not block IκBα phosphorylation
[3]; cardiomyocytes
  IκBα phosphorylation by agent alone: induced IκBα phosphorylation in both cell types
[3]; cardiomyocytes, co-treatment with IL-33
  IκB phosphorylation under hypertrophic stimulus: reduced IκB phosphorylation in cardiomyocytes
[4]
  increase of NF-κB promoter activity: 8+/−12%
[5]; ST2−/− mice
  inflammatory changes in lung: None of these changes were observed; also recorded: These changes were not observed
[5]; WT mice
  epithelial lining of the airways: remained unchanged
  infiltration of inflammatory cells in lung: Mild infiltration of inflammatory cells within vessel walls and adjacent to the vessels; also recorded: mild focal infiltrations of inflammatory cells
